# Reference: article PMC13384491
# Tests used:
# [1] = biological target: Axonemes purified from sea urchin sperm, used as microtubule tracks (sea urchin); assay: optical trapping; fixed (stationary) trap, high z-force: biotinylated K560 directly on 860-nm streptavidin beads, single motors, surface-immobilized axonemes, 2 mM ATP, 30 mM HEPES, 5 mM MgSO4, 1 mM EGTA, 10% glycerol, pH 7.4 with casein
# [2] = biological target: Axonemes purified from sea urchin sperm, used as microtubule tracks (sea urchin); assay: optical trapping; fixed (stationary) trap, low z-force: oligo-labeled full-length KIF5B on 510-nm beads through a 2.8 kb DNA handle, single motors, surface-immobilized axonemes, 2 mM ATP, 30 mM HEPES, 5 mM MgSO4, 1 mM EGTA, 10% glycerol, pH 7.4 with casein
Substance,stall time before detachment (weighted average of the two decays) [1] [s],stall time before detachment (weighted average of the two decays) [2] [s]
"K560-GFP-SNAP, tail-truncated, constitutively active human kinesin-1 KIF5B (amino acids 1-560) (from UniProt P33176 1-560) (domain or fragment)",0.27,
"KIF5B-GFP-SNAP, full-length human kinesin-1 KIF5B, oligo-labeled (from UniProt P33176 1-963) (natural protein)",,1.49
